The results in this text go back to patent US20170267761A1.

The target of the test is Sortilin SORTECD_HIS (human) (UniProt Q99523). Description: HTRF, displacement of PGRN from His-tagged Sortilin ECD. In general terms: TR-FRET usually uses a lanthanide donor and a delayed reading to cut background.

By % inhibition is commonly meant how much of the control response was suppressed.

Sortilin SORTECD_HIS (human), sequence (Q99523 other isoform, or with tags, fused parts or gaps limits assumed): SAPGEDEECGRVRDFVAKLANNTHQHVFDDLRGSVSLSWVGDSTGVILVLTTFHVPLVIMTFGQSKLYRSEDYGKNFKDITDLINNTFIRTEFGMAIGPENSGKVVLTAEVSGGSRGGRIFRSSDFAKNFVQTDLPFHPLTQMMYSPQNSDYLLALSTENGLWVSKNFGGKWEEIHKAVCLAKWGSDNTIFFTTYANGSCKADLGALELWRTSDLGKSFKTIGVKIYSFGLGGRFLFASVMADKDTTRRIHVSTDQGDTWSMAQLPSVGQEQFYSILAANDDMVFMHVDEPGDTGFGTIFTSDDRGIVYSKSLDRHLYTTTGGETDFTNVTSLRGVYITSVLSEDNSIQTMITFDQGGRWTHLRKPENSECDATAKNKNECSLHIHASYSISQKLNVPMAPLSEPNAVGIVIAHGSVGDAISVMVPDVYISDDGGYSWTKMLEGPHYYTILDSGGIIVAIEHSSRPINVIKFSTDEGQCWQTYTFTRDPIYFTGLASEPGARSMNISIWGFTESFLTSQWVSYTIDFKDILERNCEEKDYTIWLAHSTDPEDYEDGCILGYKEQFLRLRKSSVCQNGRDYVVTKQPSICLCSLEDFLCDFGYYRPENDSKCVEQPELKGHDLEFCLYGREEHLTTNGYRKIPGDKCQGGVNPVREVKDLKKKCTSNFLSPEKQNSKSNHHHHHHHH

For IgG1-b12 (antibody), the % inh highest conc stood at 37% and the % inhibition at 1 µM was 37%.
